Series [1] deals with T1, GIP receptor (Homo sapiens, UniProt P48546).
T1 construct: expressed in transfected cells; host or cells: HEK293
T1 sequence (P48546 22-466): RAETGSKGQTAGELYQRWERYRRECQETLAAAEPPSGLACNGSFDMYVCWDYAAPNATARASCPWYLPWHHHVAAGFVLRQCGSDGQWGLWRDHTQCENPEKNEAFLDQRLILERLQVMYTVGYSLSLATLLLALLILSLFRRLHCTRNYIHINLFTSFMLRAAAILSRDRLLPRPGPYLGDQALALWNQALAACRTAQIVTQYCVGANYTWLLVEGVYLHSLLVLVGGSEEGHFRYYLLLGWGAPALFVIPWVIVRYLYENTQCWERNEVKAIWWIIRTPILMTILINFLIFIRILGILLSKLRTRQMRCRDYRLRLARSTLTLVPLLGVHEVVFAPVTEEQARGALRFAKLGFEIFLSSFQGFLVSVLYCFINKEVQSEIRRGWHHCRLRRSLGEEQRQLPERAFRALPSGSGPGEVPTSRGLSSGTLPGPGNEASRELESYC
The note with it: general statement; cited from earlier work.

For series [2] the following is noted: particularly at physiological pH; cited from earlier work.
Series [3] can be described thus: Dose titration on food intake and blood glucose (FIGS. 20-25). The class given is in vivo.
Series [4] deals with GPL-1 receptor knock out mice. Put plainly: Glucose tolerance test and food intake in GLP-1 receptor knock out mice. The class given is in vivo. The note with it: GLP-1 knock out mice; 3 nmol/kg; FIG. 28. The text has this:
FIG. 26 is a graph of a glucose tolerance test conducted on wild type mice (solid lines) and on GPL-1 receptor knock out mice (dashed lines).

Series [5] concerns normal mice. Description: Blood glucose after single administration to normal mice. In kind it is in vivo. The conditions noted are these: 50 nmoles/kg, FIG. 8. The procedure:
Six- to eight-week-old male C57BL/6 mice were maintained at 23° C., constant humidity, and a 12-h light-dark cycle. The acute in vivo effects of select peptides were evaluated by subcutaneously injecting peptides solubilized in physiologically buffered saline or a vehicle control to normal or diabetic mice. Blood glucose was measured at various time points through the course of a 24 hr period following administration of the peptides. Each group of mice contained 8 animals per group. The average body weight was ˜25 g. Mice were made diabetic by administration of streptozotocin.

Series [6] concerns the target insulin subtype A receptor (Homo sapiens, UniProt P06213). Put plainly: In vitro activity at insulin subtype A receptor. In kind it is cell-based. The conditions noted are these: FIG. 1A.
Series [7] concerns the target T2, insulin receptor (IR-B) (Homo sapiens, UniProt P06213).
T2 construct: expressed in transfected cells
Put plainly: In vitro activity at insulin B receptor (IR-B). The class given is cell-based. The note with it: FIG. 1B. On the procedure: Color development was stopped 5 min later by adding 0.05 ml 1 N HCl. Absorbance at 450 nm was measured on Titertek Multiscan MCC340 (ThermoFisher, Pittsburgh, Pa.). […] Structures associated with the abbreviated lipidated groups designated in Table 4 are as follows: […]

Non-standard residues stand in square brackets, D forms with d. No end group written: not given here. Aib = CC(C)(N)C(=O)O

Data on four substances can be found in US10232020B2, “Incretin-insulin conjugates” (priority 2014, dated 2019).

Take “Native glucagon: peptide consisting of the sequence of SEQ ID NO: 701”: in series [1], the “activation of the GIP receptor” value is “does not activate the GIP receptor”. In addition, the “solubility in aqueous solution” value in series [2] is reported as “poor solubility in aqueous solution”.

“CIU-093: XEGTFTSDUSIYLDKQAAXEFVNWLLAGGPSSGAPPPS (SEQ ID NO: 1996); C(S-S)—CH2CH2CH2-B^1 Insulin”: the food intake entry in series [3] (FIG. 22) is “does not suppress food intake”; in series [4], “no reduction in food intake”. The blood glucose entry in series [3] (FIG. 25) is given as “a much higher dosage is required to get the same glucose lowering”.

“IUB-48: GLP-1 agonist, HXEGTFTSDVSSYLEEQAAKEFIAWLVKGGPSSGAPPPS (SEQ ID NO: 1932) (H[Aib]EGTFTSDVSSYLEEQAAKEFIAWLVKGGPSSGAPPPS)”: the blood glucose levels entry in series [5] is reported as “about 60 mg/dL”.

As for “GLP-DP8: GLP-1/insulin fusion, SEQ ID NO: 700; GLP-1 agonist peptide fused to the N-terminus of a single chain insulin analog (HAEGTFTSDVSSYLEEQAAREFIAWLVRGRG; GLP-1 analog)”, in series [6], the “potency at the A receptor” value is recorded as “about 2.07 nanomoles”. Moreover, the “potency at the insulin B receptor” value in series [7] was “about 9.9 nanomoles”.
